From paper PMC12416549 (2024)
Numbering of substitutions follows the chain as printed. Numbers in names are those of the source. Values belong to the binder of their own block, whether it stands above or below them.

Biological target: T1, TNFR1 (Homo sapiens, UniProt P19438)
T1 chain: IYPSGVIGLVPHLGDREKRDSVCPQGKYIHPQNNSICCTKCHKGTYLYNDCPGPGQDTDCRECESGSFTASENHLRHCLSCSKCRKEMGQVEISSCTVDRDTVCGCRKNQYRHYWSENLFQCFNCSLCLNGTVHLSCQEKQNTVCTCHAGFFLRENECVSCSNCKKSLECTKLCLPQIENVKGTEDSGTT
Test: yeast display SC50

B1: E22W (designed binder)
chain: SMEEEVEKAAKEYEKKKKEAIWKHLEKLKAKDKEAAERFLKELEEAAKEYAKDEAKTMSEEEAKRRAKKYKEKVLLSELSEEEQKEIKEAEEKLVRTILKYVEEAAK
apparent Kd (screen): 0.593 nM

B2: H24K (designed binder)
chain: B1 chain with W22E, H24K
apparent Kd (screen): 2.73 nM

B3: E5M (designed binder)
chain: B1 chain with E5M, W22E
apparent Kd (screen): 0.446 nM

B5: E4Q (designed binder)
chain: B1 chain with E4Q, W22E
apparent Kd (screen): 0.446 nM

B6: E37L (designed binder)
chain: B1 chain with W22E, E37L
apparent Kd (screen): 0.869 nM

B9: K15N (designed binder)
chain: B1 chain with K15N, W22E
apparent Kd (screen): 0.539 nM

B11: E34I (designed binder)
chain: B1 chain with W22E, E34I
apparent Kd (screen): 0.446 nM

B12: L75P (designed binder)
chain: B1 chain with W22E, L75P
apparent Kd (screen): 3.99 nM

B13: E44S (designed binder)
chain: B1 chain with W22E, E44S
apparent Kd (screen): 1.86 nM

B17: K48H (designed binder)
chain: B1 chain with W22E, K48H
apparent Kd (screen): 0.718 nM

B18: A51V (designed binder)
chain: B1 chain with W22E, A51V
apparent Kd (screen): 9.41 nM

B20: E3G (designed binder)
chain: B1 chain with E3G, W22E
apparent Kd (screen): 3 nM

B24: M2I (designed binder)
chain: B1 chain with M2I, W22E
apparent Kd (screen): 1.27 nM

B25: M58E (designed binder)
chain: B1 chain with W22E, M58E
apparent Kd (screen): 8.56 nM

B26: E7P (designed binder)
chain: B1 chain with E7P, W22E
apparent Kd (screen): 1.4 nM

B27: R65E (designed binder)
chain: B1 chain with W22E, R65E
apparent Kd (screen): 1.54 nM

B28: A55W (designed binder)
chain: B1 chain with W22E, A55W
apparent Kd (screen): 20.2 nM

B29: A51H (designed binder)
chain: B1 chain with W22E, A51H
apparent Kd (screen): 0.49 nM

B31: E12S (designed binder)
chain: B1 chain with E12S, W22E
apparent Kd (screen): 0.446 nM

B33: K41L (designed binder)
chain: B1 chain with W22E, K41L
apparent Kd (screen): 0.446 nM

B34: A67L (designed binder)
chain: B1 chain with W22E, A67L
apparent Kd (screen): 7.78 nM

B35: E42S (designed binder)
chain: B1 chain with W22E, E42S
apparent Kd (screen): 7.78 nM

B37: K11W (designed binder)
chain: B1 chain with K11W, W22E
apparent Kd (screen): 0.79 nM

B38: A9G (designed binder)
chain: B1 chain with A9G, W22E
apparent Kd (screen): 1.05 nM

B40: M58N (designed binder)
chain: B1 chain with W22E, M58N
apparent Kd (screen): 13.8 nM

B41: R38C (designed binder)
chain: B1 chain with W22E, R38C
apparent Kd (screen): 2.25 nM

B42: E14Y (designed binder)
chain: B1 chain with E14Y, W22E
apparent Kd (screen): 10.4 nM

B43: K11F (designed binder)
chain: B1 chain with K11F, W22E
apparent Kd (screen): 0.49 nM

B45: E14L (designed binder)
chain: B1 chain with E14L, W22E
apparent Kd (screen): 7.07 nM

B46: E37H (designed binder)
chain: B1 chain with W22E, E37H
apparent Kd (screen): 0.446 nM

B47: K16W (designed binder)
chain: B1 chain with K16W, W22E
apparent Kd (screen): 0.49 nM

B48: E72W (designed binder)
chain: B1 chain with W22E, E72W
apparent Kd (screen): 0.446 nM

B49: K52L (designed binder)
chain: B1 chain with W22E, K52L
apparent Kd (screen): 0.869 nM

B51: K52I (designed binder)
chain: B1 chain with W22E, K52I
apparent Kd (screen): 0.446 nM

B53: L43H (designed binder)
chain: B1 chain with W22E, L43H
apparent Kd (screen): 3.63 nM

B54: R65D (designed binder)
chain: B1 chain with W22E, R65D
apparent Kd (screen): 0.405 nM

B55: R65M (designed binder)
chain: B1 chain with W22E, R65M
apparent Kd (screen): 0.956 nM

B56: L25I (designed binder)
chain: B1 chain with W22E, L25I
apparent Kd (screen): 0.956 nM

B59: E3V (designed binder)
chain: B1 chain with E3V, W22E
apparent Kd (screen): 1.69 nM

Next, values leading:

apparent Kd (screen): 4.83 nM
B4: Q84C (designed binder)
chain: B1 chain with W22E, Q84C

apparent Kd (screen): 0.79 nM
B7: E103D (designed binder)
chain: B1 chain with W22E, E103D

apparent Kd (screen): 0.593 nM
B8: A105Q (designed binder)
chain: B1 chain with W22E, A105Q

apparent Kd (screen): 3 nM
B10: I87V (designed binder)
chain: B1 chain with W22E, I87V

apparent Kd (screen): 3.3 nM
B14: Q84H (designed binder)
chain: B1 chain with W22E, Q84H

apparent Kd (screen): 10.4 nM
B15: E92W (designed binder)
chain: B1 chain with W22E, E92W

apparent Kd (screen): 1.16 nM
B16: K107Q (designed binder)
chain: B1 chain with W22E, K107Q

apparent Kd (screen): 0.539 nM
B19: S80L (designed binder)
chain: B1 chain with W22E, S80L

apparent Kd (screen): 0.956 nM
B21: Y101S (designed binder)
chain: B1 chain with W22E, Y101S

apparent Kd (screen): 2.25 nM
B22: E83W (designed binder)
chain: B1 chain with W22E, E83W

apparent Kd (screen): 0.539 nM
B23: L76F (designed binder)
chain: B1 chain with W22E, L76F

apparent Kd (screen): 1.16 nM
B30: S80M (designed binder)
chain: B1 chain with W22E, S80M

apparent Kd (screen): 0.539 nM
B32: E81M (designed binder)
chain: B1 chain with W22E, E81M

apparent Kd (screen): 2.48 nM
B36: K100D (designed binder)
chain: B1 chain with W22E, K100D

apparent Kd (screen): 1.54 nM
B39: E92G (designed binder)
chain: B1 chain with W22E, E92G

apparent Kd (screen): 1.4 nM
B44: E86L (designed binder)
chain: B1 chain with W22E, E86L

apparent Kd (screen): 11.4 nM
B50: E92R (designed binder)
chain: B1 chain with W22E, E92R

apparent Kd (screen): 1.86 nM
B52: L76Q (designed binder)
chain: B1 chain with W22E, L76Q

apparent Kd (screen): 0.49 nM
B57: T97R (designed binder)
chain: B1 chain with W22E, T97R

apparent Kd (screen): 11.4 nM
B58: Q84T (designed binder)
chain: B1 chain with W22E, Q84T
